In PMC8202958 (Cell reports, 2021):

What was measured:
Assay in all cases: pull-down
[1] = target: T1, GST-Sla1(1–420aa, W41S) (S. cerevisiae, UniProt P32790 1-420, W41S)
T1 sequence (looked up): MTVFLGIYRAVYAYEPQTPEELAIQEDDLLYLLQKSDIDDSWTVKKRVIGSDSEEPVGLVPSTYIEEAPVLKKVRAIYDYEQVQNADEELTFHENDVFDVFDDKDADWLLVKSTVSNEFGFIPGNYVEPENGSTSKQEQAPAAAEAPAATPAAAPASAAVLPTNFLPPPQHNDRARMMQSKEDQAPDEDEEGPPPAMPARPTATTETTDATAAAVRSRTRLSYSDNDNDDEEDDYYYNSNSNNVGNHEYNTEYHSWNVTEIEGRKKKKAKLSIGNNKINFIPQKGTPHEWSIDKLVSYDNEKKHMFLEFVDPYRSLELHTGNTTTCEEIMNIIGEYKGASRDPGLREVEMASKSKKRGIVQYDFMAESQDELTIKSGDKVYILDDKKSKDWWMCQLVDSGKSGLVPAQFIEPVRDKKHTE

[2] = target: T2, GST-Ysc84 (S. cerevisiae, UniProt P32793 1-468)
T2 sequence (looked up): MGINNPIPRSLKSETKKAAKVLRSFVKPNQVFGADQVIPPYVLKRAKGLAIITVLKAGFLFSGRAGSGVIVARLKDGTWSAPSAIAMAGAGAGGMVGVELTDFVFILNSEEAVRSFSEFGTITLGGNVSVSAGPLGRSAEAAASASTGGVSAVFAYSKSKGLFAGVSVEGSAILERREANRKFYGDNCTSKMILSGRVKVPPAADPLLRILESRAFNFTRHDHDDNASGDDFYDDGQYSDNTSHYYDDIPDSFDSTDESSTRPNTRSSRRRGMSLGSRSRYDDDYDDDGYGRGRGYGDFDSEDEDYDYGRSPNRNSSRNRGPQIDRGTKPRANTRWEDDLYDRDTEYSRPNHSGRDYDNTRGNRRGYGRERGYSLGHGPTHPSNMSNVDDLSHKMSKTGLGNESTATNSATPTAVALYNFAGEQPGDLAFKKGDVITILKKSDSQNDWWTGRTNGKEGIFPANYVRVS

[3] = target: T3, GST-Sla1(1–420aa) (S. cerevisiae, UniProt P32790 1-420)
T3 sequence (looked up): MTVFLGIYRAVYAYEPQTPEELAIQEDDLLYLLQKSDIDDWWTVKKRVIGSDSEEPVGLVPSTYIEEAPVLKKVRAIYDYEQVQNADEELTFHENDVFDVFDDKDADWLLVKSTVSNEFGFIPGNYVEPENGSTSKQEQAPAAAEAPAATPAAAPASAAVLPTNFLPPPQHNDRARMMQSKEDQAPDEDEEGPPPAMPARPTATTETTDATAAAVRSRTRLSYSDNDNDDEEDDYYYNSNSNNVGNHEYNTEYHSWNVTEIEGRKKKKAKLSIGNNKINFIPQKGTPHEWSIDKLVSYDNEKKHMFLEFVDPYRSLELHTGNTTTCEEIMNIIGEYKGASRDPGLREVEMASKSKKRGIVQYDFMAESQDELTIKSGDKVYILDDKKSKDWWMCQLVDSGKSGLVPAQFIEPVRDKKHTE

[4] = target: T4, GST-Lsb3 (S. cerevisiae, UniProt P43603 1-459)
T4 sequence (looked up): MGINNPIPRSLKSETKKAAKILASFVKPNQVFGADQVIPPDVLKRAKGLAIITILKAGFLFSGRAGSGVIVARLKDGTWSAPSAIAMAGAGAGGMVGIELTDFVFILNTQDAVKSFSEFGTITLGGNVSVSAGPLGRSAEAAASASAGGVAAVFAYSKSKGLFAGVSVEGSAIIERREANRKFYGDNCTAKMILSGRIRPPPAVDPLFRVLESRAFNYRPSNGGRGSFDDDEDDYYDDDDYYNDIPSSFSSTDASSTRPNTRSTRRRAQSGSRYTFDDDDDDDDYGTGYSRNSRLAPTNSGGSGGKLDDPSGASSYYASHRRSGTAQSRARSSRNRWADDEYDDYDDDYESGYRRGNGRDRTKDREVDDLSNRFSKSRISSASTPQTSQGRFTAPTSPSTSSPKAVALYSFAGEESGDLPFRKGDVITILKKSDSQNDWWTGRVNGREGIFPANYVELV

[5] = target: T5, GST-Sla1(1–420aa, W108S) (S. cerevisiae, UniProt P32790 1-420, W108S)
T5 sequence (looked up): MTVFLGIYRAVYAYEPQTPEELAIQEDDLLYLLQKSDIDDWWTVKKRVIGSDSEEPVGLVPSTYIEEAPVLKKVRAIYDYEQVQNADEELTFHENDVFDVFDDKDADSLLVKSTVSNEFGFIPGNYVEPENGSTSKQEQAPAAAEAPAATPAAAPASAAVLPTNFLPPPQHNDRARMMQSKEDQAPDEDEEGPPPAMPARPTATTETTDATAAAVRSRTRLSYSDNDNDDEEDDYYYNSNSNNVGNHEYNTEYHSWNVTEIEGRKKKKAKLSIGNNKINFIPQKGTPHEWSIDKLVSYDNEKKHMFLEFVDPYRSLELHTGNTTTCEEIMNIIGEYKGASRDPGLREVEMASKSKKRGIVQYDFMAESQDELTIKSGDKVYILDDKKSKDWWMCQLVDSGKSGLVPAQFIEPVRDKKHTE

Measured: binding result

B1: MBP-Ecm25(361–535aa) (domain or fragment, S. cerevisiae, UniProt P32525 361-535, looked up)
chain: EISSPPSSVSSSSTIPVLPKPRKSSPTRYSELGCLTLPRSRSPSPQRSVTSPTYTPVALQNTPVLKPKSSSRNVSSPSFNAKPPLPIKAVTRPQLSLTSNSNTDLALASSSTDTLSSPTKTPSADSLPLSNSSTDLTISDNIKEMVKDEPAKDKNSVETDIFVQQFESLTLVQNA
binds: all assays above

B2: MBP-Ecm25-C-term (361–599aa) (domain or fragment, S. cerevisiae, UniProt P32525 361-599, looked up)
chain: EISSPPSSVSSSSTIPVLPKPRKSSPTRYSELGCLTLPRSRSPSPQRSVTSPTYTPVALQNTPVLKPKSSSRNVSSPSFNAKPPLPIKAVTRPQLSLTSNSNTDLALASSSTDTLSSPTKTPSADSLPLSNSSTDLTISDNIKEMVKDEPAKDKNSVETDIFVQQFESLTLVQNAKIKKFDKELQEKKKKNETTSKTADKFSQKGYSDIKASNKVSRLAALYEERLQGLQVMNEMKQRW
binds: all assays above
